In assay [1] the target is T1, hSIRPαV2D1 with histidine tag (human).
T1 construct: analyte of the Biacore experiments; also called first immunoglobulin-like domain of human SIRPα variant V2; not shown: histidine tag
Kind of assay: SPR (Biacore 3000), IgG captured, single analyte concentration 50 nM. How it is done: (§1) Briefly, biosensor analysis was conducted at 25° C. in an HPS-EP buffer (10 mM HEPES, 150 mM NaCl, 3 mM EDTA, 0.005% polysorbate 20, 0.1% bovine serum albumin, pH 7.4) using a Biacore 3000 optical biosensor equipped with a CM5 sensor chip according to the manufacturer's protocol. The auto sampler was maintained at ambient temperature. Goat anti-human IgG capture antibody (Jackson Laboratories; 109-005-098) was immobilized on the four flow cells in each sensor chip using standard amine coupling chemistry. About 8000 resonance units (RU) of this antibody was immobilized on each flow cell. Flow cells 2, 3, and 4 were used to analyze captured anti-SIRPα antibodies (about 250 to 300 RU were captured on each of flow cells 2, 3, and 4), while flow cell 1 was used as the reference flow cell. The analytes tested were hSIRPαV1D1, hSIRPαV2D1, cynomolgus monkey SIRPαV1D1 (cSIRPαV1D1), cSIRPαV2D1, hSIRPβ1D1, and hSIRPγD1, each of which also included a histidine tag. The sequences of cSIRPαV1D1 and cSIRPαV2D2 are provided in SEQ ID NOs: 143 and 142, respectively. To avoid confusion, the differences between the amino acid sequences of cSIRPαV1D1 and cSIRPαV2D1 are not the same as the differences between the amino acid sequences of hSIRPαV1D1 and hSIRPαV2D1. […]
(§2) In a separate experiment, KDs of additional variants of Ab11_G4 and Ab24_G4 were determined for binding to hSIRPαV1D1 and hSIRPαV2D1. […]
Background: SPR reads the build-up and loss of mass on a sensor chip optically.

Assay [2] deals with T2, hSIRPαV1D1 with histidine tag (human, UniProt P78324 31-147).
T2 construct: analyte of the Biacore experiments; also called first immunoglobulin-like domain of human SIRPα variant V1; not shown: histidine tag
The assay is described as above. How it is done:
as §1, §2

The target in assay [3] is T3, hSIRPαV2 expressed on the cell surface (human, UniProt P78324 31-504).
T3 construct: whole, on cells; also called human SIRPα variant V2
Kind of assay: FACS competition on EXPI293 cells stably expressing hSIRPαV2: biotinylated hCD47:Fc (2.5 µg/ml) mixed with serial dilutions of the antibody, bound hCD47:Fc detected with streptavidin-PE (MFI); blocked ligand: hCD47:Fc. How it is done: (§3) The x axes show the antibody concentration in μg/ml. The y axes show mean fluorescence intensity (MFI) at about 572 nm (due to binding of biotinylated CD47:Fc, detected by a streptavidin-phycoerythrin conjugate).
(§4) Some of the anti-SIRPα antibodies described above were tested in vitro for their ability to inhibit binding of CD47 to hSIRPαV1 or hSIRPαV2 expressed on the surface of EXPI293™ cells stably transfected with DNA encoding these proteins. Briefly, stable transfectants expressing hSIRPαV1 or hSIRPαV2 were seeded into 96-well microtiter plates. […] After 30 minutes incubation, cells were washed, streptavidin-phycoerythrin (streptavidin-PE) was added, and cells were subjected to FACS to detect bound hCD47:Fc. Results were reported as a mean fluorescence intensity (MFI) using FlowJo software (FLOWJO, L.L.C., Ashland, Oreg., USA). FIGS. 4 and 5 show the MFI detected on the y axes of both panels and the antibody concentration on the x axes of both panels.

In assay [4] the target is T1, hSIRPαV2D1 with histidine tag. The assay can be described thus: SPR (Biacore 3000), IgG captured on anti-human IgG, His-tagged D1 analyte. The text has this:
(§5) Goat anti-human IgG capture antibody (Jackson Laboratories; 109-005-098) was immobilized on the four flow cells in each sensor chip using standard amine coupling chemistry. About 8000 resonance units (RU) of this antibody was immobilized on each flow cell. Flow cells 2, 3, and 4 were used to analyze captured anti-SIRPα antibodies (about 250 to 300 RU were captured on each of flow cells 2, 3, and 4), while flow cell 1 was used as the reference flow cell. The analytes tested were hSIRPαV1D1, hSIRPαV2D1, cynomolgus monkey SIRPαV1D1 (cSIRPαV1D1), cSIRPαV2D1, hSIRPβ1D1, and hSIRPγD1, each of which also included a histidine tag. The sequences of cSIRPαV1D1 and cSIRPαV2D2 are provided in SEQ ID NOs: 143 and 142, respectively. To avoid confusion, the differences between the amino acid sequences of cSIRPαV1D1 and cSIRPαV2D1 are not the same as the differences between the amino acid sequences of hSIRPαV1D1 and hSIRPαV2D1. […] The amino acid sequence of hSIRPβ1D1 can be found in amino acids 30-148 of SEQ ID NO: 144, and the amino acid sequence of hSIRPγD1 can be found in amino acids 31-149 of SEQ ID NO: 141.
(§6) Generally, concentrations from about 0.1×KD to about 10×KD are appropriate for kinetic analysis. From one to six different concentrations were evaluated for each antibody:analyte interaction, depending on the comparisons to be made in an individual experiment. All analyte dilutions were prepared in HPS-EP buffer. Multiple blank (running buffer) injections were run and used to assess and subtract system artifacts. The association phase and dissociation phase for all analyte concentrations were monitored for 180 seconds and 300 seconds, respectively, at a flow rate of 50 μL/min. Between antibody samples, the surfaces of the flow cells were regenerated with 10 mM glycine, pH 1.5 using two injections, each lasting 12 seconds at a flow rate of 50 μL/min.
(§7) The data were analyzed using BIAevaluation software (Biacore, General Electric (GE)). The data was fit using the 1:1 Langmuir model.

The target of assay [5] is T4, cSIRPαV1D1 with histidine tag (cynomolgus monkey (Macaca fascicularis), UniProt Q5TFQ8 30-146 (human entry)).
T4 construct: also called cynomolgus monkey SIRPαV1D1; not shown: histidine tag
T4 chain: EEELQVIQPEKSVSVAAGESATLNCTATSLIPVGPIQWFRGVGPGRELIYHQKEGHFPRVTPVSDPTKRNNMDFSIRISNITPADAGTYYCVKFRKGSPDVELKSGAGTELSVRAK
The assay is described as above.
From the text: as §5, §6, §7

For assay [6], the target named is T5, hSIRPγD1 with histidine tag (human, UniProt Q9P1W8 31-149).
T5 construct: also called first immunoglobulin-like domain of human SIRP Gamma; not shown: histidine tag
The description is as above.
From the text: as §5, §6, §7

For assay [7], the target named is T6, cSIRPαV2D1 with histidine tag (cynomolgus monkey (Macaca fascicularis), UniProt Q5TFQ8 30-146 (human entry)).
T6 construct: also called cynomolgus monkey SIRPαV2D1; not shown: histidine tag
T6 chain: T4 chain with E19D, A27V, T28S, V42A, H51N, Q52L
The description is as above.
From the text: as §5, §6, §7

Assay [8] deals with T2, hSIRPαV1D1 with histidine tag. The assay is described as above.
From the text: as §5, §6, §7

In assay [9] the target is T7, hSIRPβ1D1 with histidine tag (human, UniProt O00241 30-148).
T7 construct: analyte of the Biacore experiments; also called hSIRPβD1; not shown: histidine tag
The description is as above.
From the text: as §5, §6, §7

The target in assay [10] is T8, hSIRPαV1 expressed on the cell surface (human, UniProt P78324 31-504).
T8 construct: also called human SIRPα variant V1
Kind of assay: FACS competition on EXPI293 cells stably expressing hSIRPαV1: biotinylated hCD47:Fc (2.5 µg/ml) mixed with serial dilutions of the antibody, bound hCD47:Fc detected with streptavidin-PE (MFI); blocked ligand: hCD47:Fc. As for the experimental part:
as §3, §4

For orientation: Kd means the free concentration of one partner at which half of the binding sites on the other are occupied at equilibrium, for simple one-to-one binding.

Substitutions are numbered along the chain they refer to.

T2 sequence (P78324 31-147 limits assumed): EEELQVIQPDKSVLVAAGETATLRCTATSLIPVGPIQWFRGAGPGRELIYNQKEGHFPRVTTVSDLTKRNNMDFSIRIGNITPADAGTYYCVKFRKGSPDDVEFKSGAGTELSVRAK
T1 sequence (chain, as listed by the source limits assumed): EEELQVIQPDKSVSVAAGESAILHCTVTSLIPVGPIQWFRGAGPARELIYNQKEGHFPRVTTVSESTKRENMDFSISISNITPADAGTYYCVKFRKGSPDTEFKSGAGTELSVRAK
T8 sequence (P78324 31-504): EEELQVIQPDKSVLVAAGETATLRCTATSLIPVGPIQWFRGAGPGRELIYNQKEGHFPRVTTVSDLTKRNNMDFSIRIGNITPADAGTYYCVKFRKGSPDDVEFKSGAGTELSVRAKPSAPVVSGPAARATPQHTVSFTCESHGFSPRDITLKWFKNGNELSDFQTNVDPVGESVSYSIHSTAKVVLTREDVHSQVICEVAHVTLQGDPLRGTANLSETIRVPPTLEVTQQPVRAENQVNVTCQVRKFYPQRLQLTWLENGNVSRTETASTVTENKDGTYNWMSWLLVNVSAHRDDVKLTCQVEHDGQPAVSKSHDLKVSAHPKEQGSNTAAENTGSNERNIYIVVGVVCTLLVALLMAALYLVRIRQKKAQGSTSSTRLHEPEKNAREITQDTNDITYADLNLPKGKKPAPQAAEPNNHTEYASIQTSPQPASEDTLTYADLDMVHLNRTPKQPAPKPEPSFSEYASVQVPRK
T7 sequence (O00241 30-148): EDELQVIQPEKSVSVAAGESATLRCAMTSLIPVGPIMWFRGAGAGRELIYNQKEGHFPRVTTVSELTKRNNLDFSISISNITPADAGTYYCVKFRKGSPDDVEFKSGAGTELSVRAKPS
T3 sequence (P78324 other isoform, or with tags, fused parts or gaps limits assumed): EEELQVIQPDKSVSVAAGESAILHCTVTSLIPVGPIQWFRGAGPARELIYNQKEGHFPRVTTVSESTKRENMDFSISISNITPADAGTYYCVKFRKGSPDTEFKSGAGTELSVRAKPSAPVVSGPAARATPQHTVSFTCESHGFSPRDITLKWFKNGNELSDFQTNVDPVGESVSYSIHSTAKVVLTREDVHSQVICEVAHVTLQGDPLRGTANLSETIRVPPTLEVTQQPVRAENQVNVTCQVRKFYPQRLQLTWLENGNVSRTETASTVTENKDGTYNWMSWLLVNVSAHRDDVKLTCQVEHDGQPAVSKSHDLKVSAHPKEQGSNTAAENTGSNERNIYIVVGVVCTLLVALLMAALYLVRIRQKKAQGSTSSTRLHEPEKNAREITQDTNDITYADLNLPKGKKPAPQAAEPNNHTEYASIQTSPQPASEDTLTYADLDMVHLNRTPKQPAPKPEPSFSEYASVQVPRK
T5 sequence (Q9P1W8 31-149): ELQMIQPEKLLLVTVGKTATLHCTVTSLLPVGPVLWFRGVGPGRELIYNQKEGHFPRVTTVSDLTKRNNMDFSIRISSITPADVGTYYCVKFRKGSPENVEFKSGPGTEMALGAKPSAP

B1: Ab24_G1AAA (antibody, human IgG1, kappa, L234A L235A)
heavy: EVQLVESGGGLVKPGGSLRLSCAASGFTFSSYVMSWVRQTPGKGLEWVATISSGGTYTYYPDSVKGRFTLSRDNAKNSLYLQMNSLRAEDTAVYYCASQLTGSEFDYWGQGTTVTVSSASTKGPSVFPLAPSSKSTSGGTAALGCLVKDYFPEPVTVSWNSGALTSGVHTFPAVLQSSGLYSLSSVVTVPSSSLGTQTYICNVNHKPSNTKVDKKVEPKSCDKTHTCPPCPAPEAAGGPSVFLFPPKPKDTLMISRTPEVTCVVVDVSHEDPEVKFNWYVDGVEVHNAKTKPREEQYNSTYRVVSVLTVLHQDWLNGKEYKCKVSNKALAAPIEKTISKAKGQPREPQVYTLPPSREEMTKNQVSLTCLVKGFYPSDIAVEWESNGQPENNYKTTPPVLDSDGSFFLYSKLTVDKSRWQQGNVFSCSVMHEALHNHYTQKSLSLSPGK
light: DIVLTQSPASLAVSLGERATISCRASESVDLYGTSFMHWYQQKPGQPPKLLIYRASNLESGVPDRFSGSGSRTDFTLTINPLQAEDVATYYCHQSSDELPWTFGGGTKVEIKRTVAAPSVFIFPPSDEQLKSGTASVVCLLNNFYPREAKVQWKVDNALQSGNSQESVTEQDSKDSTYSLSSTLTLSKADYEKHKVYACEVTHQGLSSPVTKSFNRGEC
notes: also called Ab24_AAA; 24_AAA
On to B1, for which the Kd in [1] was 1.19 nM; in [2] it was 19.4 nM.

B2: Ab1_G4 (antibody, human IgG4 S228P, kappa, V domains shown)
VH: EVQLVESGGGLVKPGGSLRLSCAASGFTFSSYVMSWVRQTPGKGLEWVATISSGGTYTYYPSSVKGRFTLSRDNAKNSLYLQMNSLRAEDTAVYYCASSLTGSSFDYWGQGTTVTVSS
VL: DIVLTQSPASLAVSLGERATISCRASESVDLYGTSFMHWYQQKPGQPPKLLIYRASNLESGVPDRFSGSGSRTDFTLTINPLQAEDVATYYCHQSSDELPWTFGGGTKVEIKR
notes: human IgG4 format, kappa light chain, made in EXPICHO cells
As to B2, the “IC50 (read off the curve)” value in assay [3] is approximately 0.2 µg/mL; in [10], approximately 0.6 µg/mL. Besides, the Kd was 3.12 nM in assay [4]; 36.4 nM in [5]; 244 nM in [6]; approximately 399 nM in assay [7]; 67.9 nM in [8]; 1.39 nM in assay [9].

The values are drawn from patent US20220235144A1 (QILU PUGET SOUND BIOTHERAPEUTICS, published 2022).
